We go through two molecules from patent US20110294217, “DNA NICKING ENZYME FROM A HOMING ENDONUCLEASE THAT STIMULATES SITE-SPECIFIC GENE CONVERSION” (FRED HUTCHINSON CANCER RESEARCH CENTER, published 2011).

One data set addresses T1, I-AniI K227M nickase (Aspergillus nidulans, UniProt P03880 P03880:235-488, F80K,L233K,K227M).
T1 sequence: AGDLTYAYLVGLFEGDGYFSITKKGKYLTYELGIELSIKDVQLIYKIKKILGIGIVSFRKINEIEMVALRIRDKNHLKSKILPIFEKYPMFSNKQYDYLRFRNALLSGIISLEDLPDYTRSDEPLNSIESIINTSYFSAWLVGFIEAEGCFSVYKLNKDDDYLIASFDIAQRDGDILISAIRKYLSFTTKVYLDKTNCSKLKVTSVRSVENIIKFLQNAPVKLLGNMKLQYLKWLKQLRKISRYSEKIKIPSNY
Kind of data set: ITC; +1.4 kcal/mol in binding free energy vs wild type. The protocol: (§1) Isothermal titration calorimetry (ITC) was used to determine the dissociation constants of native and nicking I-AniI binding to the optimal LIB4 DNA target site (FIG. 4E). Calorimetric experiments were conducted as described previously (Eastberg et al., Biochemistry 46:7215-25, 2007). […] This difference is primarily due to a +5.8 kcal/mol increase in enthalpy change upon nickase binding, implying that the nicking variant has lost contacts to the DNA target—presumably because a hydrogen bond formed by the K227 side chain to the DNA phosphate backbone (Scalley-Kim et al., J. Mol. Biol. 372:1305-1319, 2007) is eliminated.

The target of data set [1] is T2, I-AniI K227M/Q171K (catalytically inactive) (Aspergillus nidulans, UniProt P03880 P03880:235-488, F80K,L233K,Q171K,K227M).
T2 sequence: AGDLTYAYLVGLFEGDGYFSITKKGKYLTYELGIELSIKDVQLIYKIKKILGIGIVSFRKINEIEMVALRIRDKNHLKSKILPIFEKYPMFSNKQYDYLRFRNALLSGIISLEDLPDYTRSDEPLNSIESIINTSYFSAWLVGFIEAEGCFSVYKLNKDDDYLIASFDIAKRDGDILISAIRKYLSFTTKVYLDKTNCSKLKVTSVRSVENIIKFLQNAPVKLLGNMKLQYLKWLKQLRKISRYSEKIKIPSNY
Kind of data set: ITC; catalytically inactive. How it is done:
as §1
Background: In ITC the heat of successive injections is recorded.

A further data set deals with T3, I-AniI Y2 (in cell) (Aspergillus nidulans, UniProt P03880 P03880:235-488, F13Y,F80K,S111Y,L232K).
T3 sequence: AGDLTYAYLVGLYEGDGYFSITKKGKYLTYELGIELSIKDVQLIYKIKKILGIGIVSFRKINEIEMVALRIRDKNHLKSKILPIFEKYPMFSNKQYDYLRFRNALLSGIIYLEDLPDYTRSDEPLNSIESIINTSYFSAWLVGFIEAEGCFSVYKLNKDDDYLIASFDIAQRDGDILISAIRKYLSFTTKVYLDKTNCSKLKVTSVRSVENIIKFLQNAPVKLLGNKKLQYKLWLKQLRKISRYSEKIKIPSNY
Kind of data set: cell_activity; cis recombination, 293T; reporter alone 5.10. The settings on record: tags: N-terminal HA and NLS. The protocol:
(§2) Cells were analyzed on an FACScan® flow cytometer (Becton Dickinson); 75,000 events were gated for linear side and forward scatter to identify cells; and GFP fluorescence was analyzed.
(§3) Reporter assays were developed to measure either intramolecular recombination in cis, or recombination of a chromosomal target mediated by a donor in trans. The assay for recombination in cis used a reporter, DR-GFPAni, based on the direct repeat recombination reporter plasmid (DR)-GFP (Pierce et al., Genes Dev. 13:2633-2638, 1999), which was designed to score only gene conversion, and not repair mediated by NHEJ or single-strand annealing. […] Transfection efficiency was consistently greater than 90%. […] The fraction of GFP⁺ cells ranged from a background of about 3 to about 5% for cells transfected with the reporter alone, up to about 50% in cells transfected simultaneously with the reporter plasmid and an I-AniI Y2 cleavase expression plasmid (FIG. 8C and FIG. 10). […] Expression of the I-AniI nickase stimulated recombination 2.5-fold (FIG. 8C), or approximately one-fourth as efficiently as the I-AniI cleavase.
(§4) ¹The two different series were performed as described in this example.

The target of the next data set is T4, I-AniI HyperK (in cell) (Aspergillus nidulans, UniProt P03880 P03880:235-488, F80K,L232K).
T4 sequence: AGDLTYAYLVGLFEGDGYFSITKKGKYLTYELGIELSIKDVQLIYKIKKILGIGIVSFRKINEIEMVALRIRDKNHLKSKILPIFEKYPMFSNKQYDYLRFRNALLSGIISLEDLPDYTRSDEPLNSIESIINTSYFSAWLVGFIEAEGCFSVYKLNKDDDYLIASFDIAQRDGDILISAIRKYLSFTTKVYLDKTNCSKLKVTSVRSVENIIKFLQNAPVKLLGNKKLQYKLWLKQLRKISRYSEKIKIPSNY
The description is as above. The settings on record: tags: N-terminal HA and NLS. The protocol: as §2, §3, §4

For data set [2], the target named is T5, I-AniI Y2 K227M nickase (in cell) (Aspergillus nidulans, UniProt P03880 P03880:235-488, F13Y,F80K,S111Y,L232K,K227M).
T5 sequence: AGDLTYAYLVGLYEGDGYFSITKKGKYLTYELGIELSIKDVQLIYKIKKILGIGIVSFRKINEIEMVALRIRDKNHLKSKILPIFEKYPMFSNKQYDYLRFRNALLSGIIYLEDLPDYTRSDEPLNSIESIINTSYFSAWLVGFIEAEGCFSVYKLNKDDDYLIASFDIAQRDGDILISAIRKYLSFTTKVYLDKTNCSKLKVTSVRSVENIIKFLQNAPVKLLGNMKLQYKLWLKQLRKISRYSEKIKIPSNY
Described as above. The settings on record: tags: N-terminal HA and NLS. The protocol: as §2, §3, §4

The term Kd denotes the concentration at which binding is half-saturated. Read a low Kd as higher affinity.

B1: I-AniI Lib4 target site (dsDNA)
DNA 1: TGAGGAGGTTACTCTGTTA
DNA 2: TAACAGAGTAACCTCCTCA
Consider B1, for which the dissociation constant Kd with I-AniI K227M nickase was determined as 71 nM; in data set [1], 62 nM.

B2: I-AniI native target site (19 bp) (dsDNA)
DNA 1: TTACAGAGAAACCTCCTCA
DNA 2: TGAGGAGGTTTCTCTGTAA
As for B2, the activity worked out at 47.5 % GFP+ in the data set with I-AniI Y2 (in cell), 11 % GFP+ with I-AniI HyperK (in cell) and 12.4 % GFP+ in data set [2].
